From the DeepSol protein solubility set

Experiment: soluble on expression in E. coli; label from the status in PepcDB or PDB records
With “MGSDKIHHHHHHMTITESRNAAVAEIEEVIGDWAEALRRKDAARVLAHGTEDCLVFSLAPPLKASDADAGGLEQWFSTWKGPLGFTLEELDVSVSGDVAFATALTHLSGEKHDGQKAALWYRLTLGLTRTDRGWKIAHQHESVPFYMDGSFKAAIDLDPRSEVDWQAPSRPPMPGVIAYLNVEDADAAAAFYVRAFGAKEEDRKHAQDGKRLIHCHLTINGGALMLNDPFPEFGHPWKPPEGFVLHLVVDDADFWWNRAVEAGAEVTMPLEIAFWGDHYGQLRDPFGVTWGIVAPVKEGG” the “soluble on expression in E. coli” value was “not soluble”.
For “STLEIAGLVRKNLVQFGVGEKNGSVRWVMNALGVKDDWLLVPSHAYKFEKDYEMMEFYFNRGGTYYSISAGNVVIQSLDVGFQDVVLMKVPTIPKFRDITQHFIKKGDVPRALNRLATLVTTVNGTPMLISEGPLKMEEKATYVHKKNDGTTVDLTVDQAWRGKGEGLPGMCGGALVSSNQSIQNAILGIHVAGGNSILVAKLVTQEMFQNIDKKIESQ”, the “soluble on expression in E. coli” value was “soluble”.
For “MNVYHYETSGGKDLILEYIDGLPKNEKAEGLTILEKLEKEGLEALEVLNTRQLRGKLWEIKFYRSNRIMYVVADEDNIYLVHACKKQKGKAEKFELDTAIKRVKELEKELGKKFI”, the “soluble on expression in E. coli” value was “not soluble”.
For “GSSGSSGNWIDVRYDLEKIESLIQSIHIDTTLYTDSDFHPSCKVTAMNCFLLELQVILHEYSNMTLNETVRNVLYLANSTLSSNKNVAESGCKECEELEEKTFTEFLQSFIRIVQMFINTS”, the “soluble on expression in E. coli” value was “soluble”.
In the case of “MSTTHNVPQGDLVLRTLAMPADTNANGDIFGGWLMSQMDIGGAILAKEIAHGRVVTVRVEGMTFLRPVAVGDVVCCYARCVQKGTTSVSINIEVWVKKVASEPIGQRYKATEALFKYVAVDPEGKPRALPVE”, the “soluble on expression in E. coli” value is reported as “soluble”.
With “MAGDPMRLEIAEKYMAEAYEYLKKGDTIQASGKAYKVAEEIVKAIKFLISKLIGQDVGVISPYRTQVRKLDQELANYKPYVEVNTVDAFQGREKDVIIFSVTATNGLRFVTNRRRLNVAFTRPRYKLIVLGNENSIMSCQMTICLEHHHHHH” the “soluble on expression in E. coli” value was “not soluble”.
For “MSLKLKTLALSLLAAGVLAGCSSHSSNMANTQMKSDKIIIAHRGASGYLPEHTLESKALAFAQHSDYLEQDLAMTKDGRLVVIHDHFLDGLTDVAKKFPYRHRKDGRYYVIDFTLKEIQSLEMTENFETKDGKQAQVYPNRFPLWKSHFRIHTFEDEIEFIQGLEKSTGKKVGIYPEIKAPWFHHQNGKDIATETLKVLKKYGYDKKTDMVYLQTFDFNELKRIKTELLPQMGMDLKLVQLIAYTDWKETQEKDPKGYWVNYNYDWMFKPGAMAEVVKYADGVGPGWYMLVNKEESKPDNIVYTPLVKELAQYNVEVHPYTVRKDALPEFFTDVNQMYDALLNKSGATGVFTDFPDTGVEFLKGIKEGHHHHHH”, the “soluble on expression in E. coli” value was “soluble”.
With “MRIIMPVEFSRIVRDVERLIAVEKYSLQGVVDGDKLLVVGFSEGSVNAYLYDGGETVKLNREPINSVLDPHYGVGRVILVRDVSKGAEQHALFKVNTSRPGEEQRLEAVKPMRILSGVDTGEAVVFTGATEDRVALYALDGGGLRELARLPGFGFVSDIRGDLIAGLGFFGGGRVSLFTSNLSSGGLRVFDSGEGSFSSASISPGMKVTAGLETAREARLVTVDPRDGSVEDLELPSKDFSSYRPTAITWLGYLPDGRLAVVARREGRSAVFIDGERVEAPQGNHGRVVLWRGKLVTSHTSLSTPPRIVSLPSGEPLLEGGLPEDLRRSIAGSRLVWVESFDGSRVPTYVLESGRAPTPGPTVVLVAGGPFAEDSDSWDTFAASLAAAGFHVVMPNYRGSTGYGEEWRLKIIGDPCGGELEDVSAAARWARESGLASELYIMGYSYGGYMTLCALTMKPGLFKAGVAGASVVDWEEMYELSDAAFRNFIEQLTGGSREIMRSRSPINHVDRIKEPLALIHPQNDSRTPLKPLLRLMGELLARGKTFEAHIIPDAGHAINTMEDAVKILLPAVFFLATQRERR” the “soluble on expression in E. coli” value was “soluble”.
For “MGSDKIHHHHHHMTDPFFLSDSGLLESYRAPKWLPGGNAQTIFPYFINLSPIISYRRERWEMDDGDFIDIDWLDGESDKPLVIMLHGLEGSSQSHYALSLMNLLQMLRWRGAVVHFRGCSGYSNRLPRAYHAGDSMEIDRMLRHIAHRNDSHEWNTPCYVVGVSLGGNALLKWLGEQGAQAARQIAGVVAVSVPLDLAAAGKVLDSGFNRVYTHHFLTTLKRKALEKNRQFPGLLNARAVAACRSLYEFDNLVTAPLHGFRDTDDYWRQSSSKPWLGSVQVPTLLINARNDPFLPESVLPQKSEVSSFVSLEFPQQGGHVGFIQGTFPGKLDWLPQRIIEFFSSLCGLDAIPG”, the “soluble on expression in E. coli” value was “not soluble”.
